Results on three molecules are retold here after patent US20220220218A1 (JIANGSU HENGRUI MEDICINE, published 2022).

Changes are numbered by the printed parent chain.

To fix the notation:
T1: cynomolgus monkey CD73/NT5E protein (His tag), Sino Biological Cat. No. 90192-C08H (cynomolgus monkey, UniProt A0A2K5V5U7 27-547)
T1 construct: also called cynomolgus monkey CD73 protein; cynoCD73; not shown: His tag
T1 sequence: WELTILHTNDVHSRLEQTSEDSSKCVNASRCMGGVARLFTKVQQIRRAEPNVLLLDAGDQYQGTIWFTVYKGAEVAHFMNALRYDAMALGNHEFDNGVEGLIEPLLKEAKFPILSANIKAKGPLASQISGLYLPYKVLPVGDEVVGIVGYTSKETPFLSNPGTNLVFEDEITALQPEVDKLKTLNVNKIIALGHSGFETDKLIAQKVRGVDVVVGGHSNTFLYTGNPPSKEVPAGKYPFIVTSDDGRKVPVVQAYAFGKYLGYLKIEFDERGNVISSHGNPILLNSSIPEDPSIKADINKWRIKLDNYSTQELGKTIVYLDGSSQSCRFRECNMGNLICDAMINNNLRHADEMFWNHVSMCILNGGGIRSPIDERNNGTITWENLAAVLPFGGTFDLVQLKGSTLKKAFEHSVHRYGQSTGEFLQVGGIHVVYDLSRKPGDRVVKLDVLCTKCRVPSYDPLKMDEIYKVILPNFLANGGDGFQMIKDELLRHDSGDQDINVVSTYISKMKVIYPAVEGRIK

B1: Hab108.64 (antibody, human IgG1, kappa, V domains shown)
VH: EVTLKQSGPGLVKPTETLTLTCTVSGFSLSSYGIQWVRQPPGKGLEWLGVIWSGGSADYNAAFISRLTISKDTSKSQVVLTMTNMDPVDTATYYCAGQYGSVWGQGTLVTVSS
VL: DIQMTQSPSSLSASVGDRVTITCRASQDIGDRLNWLQQKPGGAIKRLIYATSSLDSGVPKRFSGSGSGTEYTLTISSLQPEDFATYYCLQYAGSWTFGGGTKVEIKR
notes: also called humanized antibody of mab108
B2: Hab110.21 (antibody, human IgG1, kappa, V domains shown)
VH: EVQLVQSGAEVKKPGASVKVSCKASGYTFTSYTMHWVRQAPGQRLEWMGYINPNSFYIEYNQKFKDRVTITRDTSASTAYMELSSLRSEDTAVYYCARGDYDLFYDMDNWGQGTTVTVSS
VL: DIQMTQSPSSLSASVGDRVTITCRASQDIGNSLNWLQQKPGKAIKRLIYATFRLDSGVPSRFSGSRSGTEYTLTISSLQPEDFATYYCQQYASFPWTFGGGTKVEIKR
notes: also called humanized antibody of mab110
B3: Hab127.31d (antibody, human IgG1, kappa, V domains shown)
VH: EVQLVQSGAEVKKPGASVKVSCKASGYTFTAYFMNWVRQAPGQGLEWMGRIYHNKGDTFYSQKFKGRVTMTVDKSTSTVYMELSSLRSEDTAVYYCATSYVGDWGQGTTVTVSS
VL: B2 VL with N31D, K42G, I44L, F52S, R53S, R66G, Q89L
notes: also called humanized antibody of mab127

The target in one experiment is T1, cynomolgus monkey CD73/NT5E protein …. Description: ELISA; cynomolgus monkey CD73 coated on plate. As to the method: The cross-binding activity of anti-CD73 antibodies to cynomolgus monkey CD73 protein was tested by ELISA assay. The cynomolgus monkey CD73 fusion protein was directly coated onto a 96-well microtiter plate. The signal strength after the addition of the antibody was used to determine the binding activity of the antibody to cynomolgus monkey CD73. The specific experimental procedures were as follows:
Cynomolgus monkey CD73 (Sino Biological, Cat No. 90192-C08H) was diluted with PBS, pH7.4 (Shanghai BasalMedia, Cat No. B320) buffer to a concentration of 2 μg/ml, was added into the 96-well microtiter plate at 50 μl/well, and was incubated in an incubator at 37° C. for 2 hours. The liquid was discarded, 250 μl/well blocking solution (5% skim milk diluted in PBS) was added, and incubated in an incubator at 37° C. for 3 hours or at 4° C. overnight (16-18 hours) for blocking. After the blocking was finished, the blocking solution was discarded, the plate was washed for 5 times with PBST buffer, 50 μl/well of various concentrations of each of the test antibodies (purified hybridoma antibodies or humanized antibodies, diluted with sample diluent) were added, and incubated in an incubator at 37° C. for 1 hour. After the incubation was finished, the plate was washed for 5 times with PBST, 50 μl/well of HRP-labeled goat anti-mouse secondary antibody (Jackson Immuno Research, Cat No. 115-035-003) or goat anti-human secondary antibody (Jackson Immuno Research, Cat No. 109-035-003) diluted with sample diluent was added, and incubated at 37° C. for 1 hour. The plate was washed for 5 times with PBST, 50 μl/well of TMB chromogenic substrate (KPL, Cat No. 52-00-03) was added, incubated at room temperature for 5-10 min, and 50 μl/well of 1M H₂SO₄ was added to stop the reaction. The absorbance value was read by a microplate reader (Molecular Devices, VERSA max) at a wavelength of 450 nm, and the data was analyzed with GraphPad Prism 5. The binding of anti-CD73 antibody to monkey CD73 was calculated as EC50 value.
Take B1: the EC50 (commonly the concentration giving half of the maximal effect) was determined as 0.033 nM.
In turn, B2 came in with an EC50 of 0.064 nM.
Same read-out and setting: in the case of B3 it was 0.033 nM.

The next experiment has the same target. Put plainly: SPR Biacore T200; antibody captured on Protein A chip, cynoCD73 in flow; 1:1 Langmuir. An excerpt: In this experiment, Biacore instrument was used to determine the affinity of the humanized anti-CD73 antibodies to be tested with human CD73 (huCD73) and monkey CD73 (cynoCD73).
A certain amount of test antibody was affinity-captured with Protein A biosensing chip (Cat. #29127556, GE), and then a certain concentration of human or monkey CD73 antigen was allowed to flow through the surface of the chip. The reaction signals were detected in real time with Biacore instrument (Biacore T200, GE) to generate a binding and dissociation curve. At the end of each cycle, after the dissociation was completed, the biosensor chip was washed and regenerated with Glycine-HCl, pH1.5 (Cat. #BR-1003-54, GE). The running buffer for the assay was 1×HBS-EP buffer solution (Cat. #BR-1001-88, GE).
The data obtained from the experiment was fitted against (1:1) Langmuir model using GE Biacore T200 Evaluation version 3.0 software, and the affinity values were obtained, as shown in Table 12 and Table 13 for details.
In the case of B1, binding was put at a Kd of 0.166 nM; the off-rate constant (koff) (usually the rate constant with which the complex falls apart) stood at 4.24e-05 s⁻¹; the kon (in general, the rate constant with which the complex forms) is 256000 M⁻¹ s⁻¹.
As to B2, the Kd (as a rule, the concentration at which binding is half-saturated) was found to be 0.0489 nM; the koff was found to be 3.45e-05 s⁻¹; the association rate constant (kon) was 704000 M⁻¹ s⁻¹.
B3 showed a Kd of 0.0699 nM, a koff of 1.86e-05 s⁻¹ and an association rate constant (kon) of 266000 M⁻¹ s⁻¹.
